The target of the assay is protective antigen, full-length wild type, nicked (nPA) and assembled into oligomers (Bacillus anthracis). Kind of assay: electron microscopy.

For the substance “protective antigen, full-length wild type, nicked (nPA) and assembled into oligomers (natural protein)”, the fold less octamer with Δ47 LFN than with WT LFN amounted to 10 fold.

These data come from PMC3133606.
